Paper PMC5582869

B1: human ZDHHC6 (WT), Myc-tagged [human] / human ZDHHC6 (WT), Myc-tagged [human] (parent)
chain 1: MGTFCSVIKFENLQELKRLCHWGPIIALGVIAICSTMAMIDSVLWYWPLHTTGGSVNFIMLINWTVMILYNYFNAMFVGPGFVPLGWKPEISQDTMYLQYCKVCQAYKAPRSHHCRKCNRCVMKMDHHCPWINNCCGYQNHASFTLFLLLAPLGCIHAAFIFVMTMYTQLYHRLSFGWNTVKIDMSAARRDPLPIVPFGLAAFATTLFALGLALGTTIAVGMLFFIQMKIILRNKTSIESWIEEKAKDRIQYYQLDEVFVFPYDMGSRWRNFKQVFTWSGVPEGDGLEWPVREGCHQYSLTIEQLKQKADKRVRSVRYKVIEDYSGACCPLNKGIKTFFTSPCTEEPRIQLQKGEFILATRGLRYWLYGDKILDDSFIEGVSRIRGWFPRKCVEKCPCDAETDQAPEGEKKNR
chain 2: B1 chain 1

Variants of: B1
Assay: co-immunoprecipitation (IP with myc antibodies, anti-GFP immunoblot, densitometry)
Details: HeLa cells transfected for 24 hr, n = 4, parent: 100, read off a plot

percent of parent | Variant
39 % of WT | chain 1 C328A C329A C343A
